In assay [1] the target is baseplate hub gp15 of cyanophage A-1(L) (cyanophage A-1(L)). Kind of assay: cryo-EM structure; intact A-1(L) particles purified from infected Anabaena sp. PCC 7120, in SM buffer (50 mM Tris-HCl pH 7.5, 10 mM MgSO4, 100 mM NaCl); local reconstructions of portal, gp5-neck fiber, gp7-terminator, sheath-tube, baseplate and tail fibers.
Assay [2] addresses baseplate wedge protein gp32 of cyanophage A-1(L) (cyanophage A-1(L)). The description is as above.
The target in assay [3] is central spike gp25 of cyanophage A-1(L) (cyanophage A-1(L)). The description is as above.
Assay [4] addresses long tail fiber gp34 of cyanophage A-1(L) (cyanophage A-1(L)). The description is as above.
The target in assay [5] is neck fiber protein gp82 of cyanophage A-1(L), in the virion (cyanophage A-1(L)). Described as above.
Assay [6] has as its target neck protein gp5 of cyanophage A-1(L) (cyanophage A-1(L)). Described as above.
Assay [7] concerns the target neck protein gp7 of cyanophage A-1(L) (cyanophage A-1(L)). Described as above.
Assay [8] deals with portal protein gp2 of cyanophage A-1(L) (cyanophage A-1(L)). Described as above.
Assay [9] has as its target recombinant gp80-His6 of the neck fiber (cyanophage A-1(L)). Kind of assay: SEC-MALS; recombinant neck fiber gp82-gp81-gp80-His6, 1 mg/mL, 100 uL, Superdex 200 Increase 10/300 GL in binding buffer.
Assay [10] deals with recombinant gp82 of the neck fiber gp82-gp81-gp80-His6 (cyanophage A-1(L)). The description is as above.
Assay [11] concerns the target sheath initiator gp30 of cyanophage A-1(L) (cyanophage A-1(L)). Nature of the assay: cryo-EM structure; intact A-1(L) particles purified from infected Anabaena sp. PCC 7120, in SM buffer (50 mM Tris-HCl pH 7.5, 10 mM MgSO4, 100 mM NaCl); local reconstructions of portal, gp5-neck fiber, gp7-terminator, sheath-tube, baseplate and tail fibers.
In assay [12] the target is short tail fiber gp33 of cyanophage A-1(L) (cyanophage A-1(L)). Described as above.
The target in assay [13] is tail sheath protein gp9 of cyanophage A-1(L) (cyanophage A-1(L)). The assay is described as above.
In assay [14] the target is tail terminator gp8 of cyanophage A-1(L) (cyanophage A-1(L)). The assay is described as above.
In assay [15] the target is tail tube protein gp10 of cyanophage A-1(L) (cyanophage A-1(L)). The description is as above.
The target in assay [16] is tape measure protein gp13 of cyanophage A-1(L) (cyanophage A-1(L)). The assay is described as above.
Assay [17] concerns the target tube initiator gp18 of cyanophage A-1(L) (cyanophage A-1(L)). The description is as above.

“baseplate hub gp15 of cyanophage A-1(L) (natural protein)” showed a stoichiometry N in [1] of 3 subunits.
With “baseplate wedge protein gp31 of cyanophage A-1(L) (natural protein)”, the stoichiometry N (gp31 per gp32) in [2] was 2.
With “central spike gp25 of cyanophage A-1(L) (natural protein)”, in [3], the stoichiometry N was 3 subunits.
“long tail fiber gp34 of cyanophage A-1(L) (natural protein)” had a stoichiometry N in assay [4] of 3 subunits.
As to “neck fiber protein gp82 of cyanophage A-1(L), in the virion (natural protein)”, the stoichiometry N in assay [5] is 3 subunits.
Substance “neck protein gp5 of cyanophage A-1(L) (natural protein)” yielded a stoichiometry N in assay [6] of 15 subunits.
The substance “neck protein gp7 of cyanophage A-1(L) (natural protein)” showed a stoichiometry N in assay [7] of 6 subunits.
Regarding “portal protein gp2 of cyanophage A-1(L) (natural protein)”, the stoichiometry N in assay [8] was determined as 12 subunits.
Turning to “recombinant gp81 of the neck fiber (natural protein)”, in [9], the stoichiometry N (gp81 trimers per gp80 trimer) amounted to 14. Further, in assay [10], the stoichiometry N (gp81 trimers per gp82 trimer) is 14.
On to “sheath initiator gp30 of cyanophage A-1(L) (natural protein)”, for which the stoichiometry N in assay [11] stood at 6 subunits.
“short tail fiber gp33 of cyanophage A-1(L) (natural protein)” showed a stoichiometry N in [12] of 3 subunits.
As to “tail sheath protein gp9 of cyanophage A-1(L) (natural protein)”, the stoichiometry N (subunits in a ring) in assay [13] was found to be 6.
In assay [14], “tail terminator gp8 of cyanophage A-1(L) (natural protein)” registered a stoichiometry N of 6 subunits.
Consider “tail tube protein gp10 of cyanophage A-1(L) (natural protein)”, for which the stoichiometry N (subunits in a ring) in assay [15] was found to be 6.
In turn, “tape measure protein gp13 of cyanophage A-1(L) (natural protein)” had a stoichiometry N in assay [16] of 6.
On to “tube initiator gp18 of cyanophage A-1(L) (natural protein)”, for which the stoichiometry N in assay [17] is 6 subunits.

By stoichiometry N is commonly meant the number of molecules, sites or subunits per partner or assembly.
